{"source": "paper PMC6066304", "biological_target": "Arabidopsis thaliana plant cysteine oxidase 5 (Arabidopsis thaliana) (UniProt Q9LXT4)", "sequence (Q9LXT4 whole entry)": "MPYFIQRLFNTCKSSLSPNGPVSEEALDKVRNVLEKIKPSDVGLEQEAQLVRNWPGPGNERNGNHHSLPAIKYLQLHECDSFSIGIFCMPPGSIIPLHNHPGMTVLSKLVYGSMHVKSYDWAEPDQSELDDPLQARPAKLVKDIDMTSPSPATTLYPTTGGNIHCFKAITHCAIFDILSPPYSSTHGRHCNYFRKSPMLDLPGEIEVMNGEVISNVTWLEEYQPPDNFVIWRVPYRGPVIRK"}
{"substance": "AtRAP2(2–15), 14-amino acid peptide corresponding to the methionine excised N terminus of AtRAP2.2 and AtRAP2.12", "values": [{"measurement": "Km for AtRAP2(2–15); initial rates of N-terminal cysteine oxidation by LC-MS, Michaelis–Menten fit with substrate inhibition, atmospheric O2, pH 8.0, 25 °C", "result": 0.16, "unit": "mM"}]}
